# Test results as given in patent US20140274782A1, “AFFINITY REAGENTS AND METHODS FOR DETECTION, PURIFICATION, AND PROTEOMIC ANALYSIS OF METHYLATED PROTEINS” (The Board of Trustees of the Leland Stanford Junior …, priority 2013, published 2014).
# T1: G9a and GLP (Homo sapiens, UniProt Q96KQ7+Q9H9B1)
# T1 sequence (Q96KQ7 2-1210 limits assumed): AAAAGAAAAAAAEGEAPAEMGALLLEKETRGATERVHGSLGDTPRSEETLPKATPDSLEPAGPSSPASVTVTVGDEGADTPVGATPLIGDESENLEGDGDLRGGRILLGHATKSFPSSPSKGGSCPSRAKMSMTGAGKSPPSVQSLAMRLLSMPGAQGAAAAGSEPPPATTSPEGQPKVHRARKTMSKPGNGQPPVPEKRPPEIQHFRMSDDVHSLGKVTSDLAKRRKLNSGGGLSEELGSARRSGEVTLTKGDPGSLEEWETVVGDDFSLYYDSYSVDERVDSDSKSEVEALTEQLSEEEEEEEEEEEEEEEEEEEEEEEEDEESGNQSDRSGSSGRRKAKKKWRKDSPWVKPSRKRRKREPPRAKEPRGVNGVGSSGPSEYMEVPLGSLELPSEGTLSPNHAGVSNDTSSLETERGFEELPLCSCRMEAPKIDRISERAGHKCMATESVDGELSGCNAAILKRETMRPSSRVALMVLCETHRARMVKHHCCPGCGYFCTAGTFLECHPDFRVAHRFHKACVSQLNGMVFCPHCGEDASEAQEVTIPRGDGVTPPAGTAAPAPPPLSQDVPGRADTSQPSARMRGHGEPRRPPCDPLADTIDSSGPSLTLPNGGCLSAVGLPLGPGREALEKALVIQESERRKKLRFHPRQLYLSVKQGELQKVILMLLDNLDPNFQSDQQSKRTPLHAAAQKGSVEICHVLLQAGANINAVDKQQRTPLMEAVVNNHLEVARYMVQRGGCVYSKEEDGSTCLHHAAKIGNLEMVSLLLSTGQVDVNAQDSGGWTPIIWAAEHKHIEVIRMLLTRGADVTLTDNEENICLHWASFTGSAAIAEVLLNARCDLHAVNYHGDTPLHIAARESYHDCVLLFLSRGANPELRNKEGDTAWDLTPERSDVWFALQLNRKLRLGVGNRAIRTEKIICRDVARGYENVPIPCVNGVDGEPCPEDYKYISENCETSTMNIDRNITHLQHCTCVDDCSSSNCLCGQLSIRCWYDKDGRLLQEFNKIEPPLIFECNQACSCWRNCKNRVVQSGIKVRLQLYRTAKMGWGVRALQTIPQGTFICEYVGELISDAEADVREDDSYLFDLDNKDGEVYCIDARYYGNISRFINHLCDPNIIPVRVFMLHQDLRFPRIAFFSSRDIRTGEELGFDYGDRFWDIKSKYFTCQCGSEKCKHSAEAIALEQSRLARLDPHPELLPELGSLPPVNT
# T1 sequence (Q9H9B1 2-1298 limits assumed): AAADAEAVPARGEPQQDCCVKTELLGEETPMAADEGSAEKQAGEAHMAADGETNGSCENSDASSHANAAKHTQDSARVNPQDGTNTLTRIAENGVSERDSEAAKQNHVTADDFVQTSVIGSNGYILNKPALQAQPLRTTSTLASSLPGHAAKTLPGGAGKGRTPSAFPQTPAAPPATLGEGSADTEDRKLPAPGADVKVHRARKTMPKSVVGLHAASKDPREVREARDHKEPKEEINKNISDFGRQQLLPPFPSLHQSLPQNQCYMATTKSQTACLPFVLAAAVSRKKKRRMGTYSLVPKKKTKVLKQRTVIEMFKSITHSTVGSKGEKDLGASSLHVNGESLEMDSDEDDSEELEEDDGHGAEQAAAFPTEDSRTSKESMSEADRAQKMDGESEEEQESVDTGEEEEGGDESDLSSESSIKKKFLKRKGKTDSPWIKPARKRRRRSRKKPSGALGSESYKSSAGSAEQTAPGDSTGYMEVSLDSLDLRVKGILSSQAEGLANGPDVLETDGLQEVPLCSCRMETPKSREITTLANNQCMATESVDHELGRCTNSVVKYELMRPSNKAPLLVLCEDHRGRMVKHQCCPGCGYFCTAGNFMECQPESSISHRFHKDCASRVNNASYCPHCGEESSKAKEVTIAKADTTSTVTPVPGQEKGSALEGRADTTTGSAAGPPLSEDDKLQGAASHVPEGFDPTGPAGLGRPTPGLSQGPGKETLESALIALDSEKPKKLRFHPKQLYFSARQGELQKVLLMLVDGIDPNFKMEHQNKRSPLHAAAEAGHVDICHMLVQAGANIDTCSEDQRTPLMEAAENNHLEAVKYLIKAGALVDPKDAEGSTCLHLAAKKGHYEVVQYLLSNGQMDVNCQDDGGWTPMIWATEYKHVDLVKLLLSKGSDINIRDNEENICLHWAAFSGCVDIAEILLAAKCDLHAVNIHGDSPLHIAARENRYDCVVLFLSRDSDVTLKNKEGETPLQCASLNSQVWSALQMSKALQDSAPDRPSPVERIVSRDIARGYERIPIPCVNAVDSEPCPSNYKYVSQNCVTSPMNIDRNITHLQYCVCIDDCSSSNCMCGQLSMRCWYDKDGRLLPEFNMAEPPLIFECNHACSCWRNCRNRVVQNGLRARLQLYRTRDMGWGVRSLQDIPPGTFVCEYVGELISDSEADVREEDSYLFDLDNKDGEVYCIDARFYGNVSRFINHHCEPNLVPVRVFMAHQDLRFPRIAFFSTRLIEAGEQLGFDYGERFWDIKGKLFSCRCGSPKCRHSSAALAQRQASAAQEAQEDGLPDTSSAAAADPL
# B1: SCML2: protein with methylated lysine identified in 3xMBT pull-down (protein, UniProt Q9UQR0 1-700, looked up)
# Sex comb on midleg-like …: MGQTVNEDSMDVKKENQEKTPQSSTSSVQRDDFHWEEYLKETGSISAPSECFRQSQIPPVNDFKVGMKLEARDPRNATSVCIATVIGITGARLRLRLDGSDNRNDFWRLVDSPDIQPVGTCEKEGDLLQPPLGYQMNTSSWPMFLLKTLNGSEMASATLFKKEPPKPPLNNFKVGMKLEAIDKKNPYLICPATIGDVKGDEVHITFDGWSGAFDYWCKYDSRDIFPAGWCRLTGDVLQPPGTSVPIVKNIAKTESSPSEASQHSMQSPQKTTLILPTQQVRRSSRIKPPGPTAVPKRSSSVKNITPRKKGPNSGKKEKPLPVICSTSAASLKSLTRDRGMLYKDVASGPCKIVMSTVCVYVNKHGNFGPHLDPKRIQQLPDHFGPGPVNVVLRRIVQACVDCALETKTVFGYLKPDNRGGEVITASFDGETHSIQLPPVNSASFALRFLENFCHSLQCDNLLSSQPFSSSRGHTHSSAEHDKNQSAKEDVTERQSTKRSPQQTVPYVVPLSPKLPKTKEYASEGEPLFAGGSAIPKEENLSEDSKSSSLNSGNYLNPACRNPMYIHTSVSQDFSRSVPGTTSSPLVGDISPKSSPHEVKFQMQRKSEAPSYIAVPDPSVLKQGFSKDPSTWSVDEVIQFMKHTDPQISGPLADLFRQHEIDGKALFLLKSDVMMKYMGLKLGPALKLCYYIEKLKEGKYS
# Key:
# [1] = test system: 3×MBT domain of L3MBTL1; test: Triple SILAC pull-down, 3xMBT/3xMBTD355N ratio (cytoplasmic, nuclear and chromatin fractions of 293T cells); assay type: binding, human; conditions: SILAC ratio 3xMBT vs 3xMBTD355N pull-down, 293T cells, all values in log base 2;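 note: proteins quantified with MaxQuant, requiring at least two unique peptides and quantification in both label directions, normalized to the mean of proteins from a digested loading control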
# [2] = molecular target: T1, G9a and GLP; test: Triple SILAC pull-down after UNC0638 treatment of 293T cells, DMSO/UNC0638 ratio of protein captured by 3×MBT; assay type: cell-based; design: cells were treated for 24 hours with UNC0638 at 2.5 μM or DMSO vehicle control; endogenous in cells; host or cells: HEK 293T; conditions: all values in log base 2;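 note: mass spectrometry (Q-Exactive) SILAC quantitation, DMSO/UNC0638 ratio computed after subtracting 3×MBTD355N mutant pull-down background, only proteins with at least twofold 3×MBT over mutant signal considered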
molecule,measurement,setting,value
B1,3xMBT/D355N UNC Heavy,[1]; experiment with UNC0638 in heavy SILAC media,1.39 log base 2
same,3xMBT/D355N UNC Light,[1]; experiment with UNC0638 in light SILAC media,1.28 log base 2
same,Relative to UNC0638 UNC Heavy,"[2]; SILAC ratio DMSO relative to UNC0638, pull-down with 3xMBT, UNC0638 in heavy SILAC media",0.59 log base 2
same,Relative to UNC0638 UNC Light,"[2]; SILAC ratio DMSO relative to UNC0638, pull-down with 3xMBT, UNC0638 in light SILAC media",−0.85 log base 2
same,Relative to UNC0638 Average,[2]; average of UNC Light and UNC Heavy experiments,−0.13 log base 2
